Test results as given in patent publication US20110294729A1, “Novel Insulin Analogues” (Novo Nordisk A/S, priority 2008, published 2011).

Assays:
[1] = target: human insulin receptor B-isoform (human) (UniProt P06213); experiment: SPA competition against [125I]A14Tyr-insulin, solubilized hIR-B, analogue in yeast supernatant
[2] = target: human insulin receptor A-isoform (human) (UniProt P06213); experiment: SPA competition against [125I]A14Tyr-insulin, solubilized hIR-A, analogue in yeast supernatant
[3] = target: human insulin receptor B-isoform (human) (UniProt P06213); experiment: SPA competition; ratio of the hIR-B column to the hIR-A column

Substance: [A8H, B25H, B27E, desB30] human insulin (ligand)
- relative affinity [% of HI] [1]: 140 % of HI
- relative affinity [% of HI] [2]: 67 % of HI
- Ratio B/A (relative hIR-B affinity over relative hIR-A affinity) [3]: 2.1
